Three molecules from US20210206877A1 (Genentech, published 2021) can be followed below.

Where two headings read alike, the source gives them in different places.

Assay in all cases: cell-based or functional assay
For assay [1], the target named is T1, BACE1 endogenous to primary cortical neurons from E16.5 CD1 mice (mouse, UniProt P56818 46-501).
Assay [2] addresses T1, BACE1 endogenous to primary cortical …. This is another data set of the same source.
Assay [3] has the same target. This is another data set of the same source.

T1 sequence (P56818 46-501): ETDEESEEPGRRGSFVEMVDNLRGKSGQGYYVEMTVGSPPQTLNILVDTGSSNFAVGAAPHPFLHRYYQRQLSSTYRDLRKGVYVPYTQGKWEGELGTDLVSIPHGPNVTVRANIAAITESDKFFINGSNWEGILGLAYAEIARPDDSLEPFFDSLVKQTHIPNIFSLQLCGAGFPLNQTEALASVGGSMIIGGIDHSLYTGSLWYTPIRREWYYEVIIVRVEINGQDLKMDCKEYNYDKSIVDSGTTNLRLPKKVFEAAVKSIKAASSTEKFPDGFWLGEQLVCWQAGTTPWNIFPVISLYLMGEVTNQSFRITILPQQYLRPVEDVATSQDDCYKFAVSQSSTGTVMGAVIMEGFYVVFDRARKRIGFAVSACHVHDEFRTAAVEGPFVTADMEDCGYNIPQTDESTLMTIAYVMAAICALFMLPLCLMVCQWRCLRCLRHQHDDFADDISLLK

B1: antibody 6266 (antibody, V domains shown)
VH: EVQLVQSGAEVKKPGSSVKVSCKASGGTLSGYGVSWVRQAPGQGLEWMGNIIPGFGTANYAQKFQGRVTITADESTSTAYMELSSLRSEDTAVYYCARSGGTKYGMLDVWGQGTMVTVSS
VL: EIVMTQSPATLSVSPGERATLSCRASQSVSSNLAWYQQKPGQAPRLLIYGASTRATGIPARFSGSGSGTEFTLTISSLQSEDFAVYYCQQLILWPPRTFGGGTKVEIK
As for B1, in assay [1], the “IC50, inhibition of Aβx-40 production in primary mouse cortical neuron cultures (sandwich ELISA of supernatants)” value turned out to be 1.7 nM. Moreover, the “max % inhibition, Abeta x-40 in mouse cortical neurons” value (“max % inhibition” for short) in assay [2] was 87%.

B2: 6314 (antibody, V domains shown)
VH: QLQLQESGPGLVKPSETLSLTCTVSGGSISRGSYYWGWIRQPPGKGLEWIGMIYYSGSTWYNPSLKSRVTISVDTSKNQFSLKLSSVTAADTAVYYCARVGHGVSYFDLWGRGTLVTVSS
VL: EIVLTQSPATLSLSPGERATLSCRASQSVSSYLAWYQQKPGQAPRLLIYDASNRATGIPARFSGSGSGTDFTLTISSLEPEDFAVYYCQQSIVWPPRTFGGGTKVEIK
Take B2: in assay [3], the “max % inhibition” value is 71%.

B3: 6315 (antibody, V domains shown)
VH: QLQLQESGPGLVKPSETLSLTCTVSGGSISRGSYYWGWIRQPPGKGLEWIGMIYYSGSTWYNPSLKSRVTISVDTSKNQFSLKLSSVTAADTAVYYCARVGHGVSYFDLWGRGTLVTVSS
VL: EIVLTQSPATLSLSPGERATLSCRASQSVSSYLAWYQQKPGQAPRLLIYDASKRATGIPARFSGSGSGTDFTLTISSLEPEDFAVYYCQQSLVWPPRTFGGGAKVEIK
As for B3, the “max % inhibition” value in assay [3] came out at 73%.
